Patent publication US20160083733A1, “NOVEL TREATMENT OF METABOLIC DISEASES” (UNIVERSITY OF BREMEN, priority 2013, published 2016)

Tests used:
human islets = assay: MST1 overexpression (Ad-MST1)-induced apoptosis in human islets; assay type: cell-based; conditions: Ad-MST1 48 h
Text: (§1) Human islets were isolated from twenty pancreases of healthy organ donors and from five with T2D at the University of Illinois at Chicago or Lille University and cultured on extracellular matrix (ECM) coated dishes (Novamed, Jerusalem, Israel) as described previously (Schulthess et al., Cell. Metab. 9 (2009) 125-139). Islet purity was greater than 95% as judged by dithizone staining (if this degree of purity was not achieved by routine isolation, islets were handpicked). Islets from MST1^−/− mice and their WT littermates were isolated as described previously (Schulthess et al., Cell. Metab. 9 (2009) 125-139). […]
Pancreatic tissues were processed as previously described (Shu et al., Diabetes 57 (2007), 645-53). […] Slides were mounted with Vectashield with 4′6-diamidino-2-phenylindole (DAPI) (Vector Labs). β-cell apoptosis for mouse sections or primary islets cultured on ECM dishes was analyzed by the terminal deoxynucleotidyl transferase-mediated dUTP nick-end labeling (TUNEL) technique according to the manufacturer's instructions (In Situ Cell Death Detection Kit, TMR red; Roche) and double stained for insulin. Fluorescence was analyzed using a Nikon MEA53200 (Nikon GmbH, Dusseldorf, Germany) microscope and images were acquired using NIS-Elements software (Nikon). […]

INS-1E cells = assay: Apoptotic markers, cytochrome c release and PDX1 in INS-1E cells under diabetogenic conditions; assay type: cell-based, rat; conditions: 33.3 mM glucose for 48 h, overexpression of dnMST1
Text: as §1
At the end of the incubation periods, islets and INS1E cells were washed in ice-cold PBS and lysed in lysis buffer containing 20 mM Tris acetate, 0.27 M sucrose, 1 mM EDTA, 1 mM EGTA, 50 mM NaF, 1% Triton X-100, 5 mM sodium pyrophosphate and 10 mM β-glycerophosphate. […] Protein concentrations were determined with the BCA protein assay (Pierce). […] Membrane was developed using a chemiluminescence assay system (Pierce) and analyzed using DocIT®LS image acquisition 6.6a (UVP BioImaging Systems, Upland, Calif., USA). […]

PDX1 = PDX1 protein level, degradation and ubiquitination in HEK293 cells co-transfected with MST1; assay type: cell-based, mouse; conditions: co-transfection with PDX1 in HEK293 cells
Text: pCMV-myc-MST1 and kinase-dead (MST1-K59; dnMST1) are described in Yamamoto et al., J. Clin. Invest. 111 (2003), 1463-1474. Mouse pB.RSV.PDX1-GFP is described in Kawamori et al., Diabetes 52 (2003) 2896-2904. pcDNA3 Myr-HA Akt1, HA-Ubiquitin and pCDNA3 Jnk1a1 (apf)(dn-JNK) plasmids were obtained from Addgene (Cambridge, Mass.). Mouse PDX1 mutants (T11, T126, T152, T155, T214 and T231) in pCGIG5 vector were generated by site-directed mutagenesis as described previously (Frogne et al., 7 (2012), e35233). All mutations were verified by sequencing. To make bacterial expression plasmids for PDX1 mutants, the complete mouse PDX1 CDS (wild type and mutants) has been amplified by PCR using a specific set of primers from pCGIG5 plasmids and cloned into a pGEX-6P-1 bacterial expression vector. The rat insulin driven luciferase vector (RIP-Luc) was constructed by subcloning a 700 by fragment containing −660 bp of the rat 2 insulin promoter into a pMCS-Green-Renilla-Luc vector (Thermo Scientific). pCMV-Red firefly Luc vector was obtained from Thermo Scientific.
HEK293 cells were cultured in 10-cm cell culture dishes and transfected with HA-ubiquitin, PDX1 and MST1 expression plasmids for 48 h. For ubiquitination in human islets, 5000 islets per condition were transfected with ubiquitin plasmid. After 24 h, islets were infected with Ad-GFP or Ad-MST1 for 6 h and kept for another 48 h. […]

Row | Molecule | MST1-induced increase in Bim and subsequent caspase-3 cleavage (human islets) | glucose-induced caspase-3 and PARP cleavage (INS-1E cells) | PDX1 level (PDX1)
1 | dnJNK1: dominant negative mutant of JNK1 expressed from plasmid pCDNA3 Jnk1a1 (apf) (protein, UniProt P45983 1-427, looked up, variant T183A Y185F) Mitogen-activated protein …: MSRSKRDNNFYSVEIGDSTFTVLKRYQNLKPIGSGAQGIVCAAYDAILERNVAIKKLSRPFQNQTHAKRAYRELVLMKCVNHKNIIGLLNVFTPQKSLEEFQDVYIVMELMDANLCQVIQMELDHERMSYLLYQMLCGIKHLHSAGIIHRDLKPSNIVVKSDCTLKILDFGLARTAGTSFMMAPFVVTRYYRAPEVILGMGYKENVDLWSVGCIMGEMVCHKILFPGRDYIDQWNKVIEQLGTPCPEFMKKLQPTVRTYVENRPKYAGYSFEKLFPDVLFPADSEHNKLKASQARDLLSKMLVIDASKRISVDEALQHPYINVWYDPSEAEAPPPKIPDKQLDEREHTIEEWKELIYKEVMDLEERTKNGVIRGQPSPLGAAVINGSQHPSSSSSVNDVSSMSTDPTLASDTDSSLEAAAGPLGCCR | prevented |  | 
2 | dnMST1: kinase-dead, dominant negative MST1 mutant (K59R) expressed from plasmid (protein, UniProt Q13043 1-487, looked up, variant K59R) Serine/threonine-protein …: METVQLRNPPRRQLKKLDEDSLTKQPEEVFDVLEKLGEGSYGSVYKAIHKETGQIVAIRQVPVESDLQEIIKEISIMQQCDSPHVVKYYGSYFKNTDLWIVMEYCGAGSVSDIIRLRNKTLTEDEIATILQSTLKGLEYLHFMRKIHRDIKAGNILLNTEGHAKLADFGVAGQLTDTMAKRNTVIGTPFWMAPEVIQEIGYNCVADIWSLGITAIEMAEGKPPYADIHPMRAIFMIPTNPPPTFRKPELWSDNFTDFVKQCLVKSPEQRATATQLLQHPFVRSAKGVSILRDLINEAMDVKLKRQESQQREVDQDDEENSEEDEMDSGTMVRAVGDEMGTVRVASTMTDGANTMIEHDDTLPSQLGTMVINAEDEEEEGTMKRRDETMQPAKPSFLEYFEQKEKENQINSFGKSVPGPLKNSSDWKIPQDGDYEFLKSWTVEDLQKRLLALDPMMEQEIEEIRQKYQSKRQPILDAIEAKKRRQQNF |  | completely inhibited | no effect
